Assay: soluble fraction after stress (log2 fold change); higher = more stays soluble; pooled small domains, quantitative proteomics
Settings: stress: pH 4
Summary of the method: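 Custom libraries of small protein domains were pooled and measured with high-throughput quantitative proteomics after pH 4 stress. The read-out is the fold change in the amount of each domain that stays soluble after the acid stress, taken as a measure of aggregation propensity. Fold changes are on a log2 scale, and higher values mean more of the domain stayed soluble.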

HMSSYETVTLNGQRYFKYKVKSGEGLYAISRMFSTPIAEIIRHNPSSNAGLKNGQELLIPVN
soluble fraction (log2): -0.0689

HMTTLDTVARQLRDRIREQLDPTGEMSDESLLRTIEEAVYRYSSSGHVLTANEKETVIRRIFHSFR
soluble fraction (log2): -0.201

HMNEPMITEVKRINYGSIKEIAKNLDVFKGKNGTVIIDERTNTLILTDLSENIEKMLWSIEITD
soluble fraction (log2): -0.855

HMGPEISEDAKVVFDRLKNHDEILLNNFKSEFDLSNKKWDKIIKELRGNDLISIIKSEDGNLFIKP
soluble fraction (log2): -0.293

HMALALDDLFDRYEQLQDQSLGDKTEEGQELRAMIRAYIEQEGLSVRVTRSTTNRELLELIEQEMEG
soluble fraction (log2): -0.703

HMFWVESDVDFVDKTSAHNAIKENERVIGMYISYRLNGTWTTEQYVGIDTSKDNWENPDNWNIL
soluble fraction (log2): -0.381

HMKTTKESLLEYIQREVFTDSIHKEGLSTNEIADAFQIQRSNVSSLLNTLVKEGKLEKTTGRPVLYRIPEK
soluble fraction (log2): 0.0777

HMDVSLVEQTQRDILEYISKNNSNAQLPKEQEFVGLLGVSRVVVREALSRLRALGIIETKRKKGTVVVVPE
soluble fraction (log2): -0.31

HMNNIGSKIKSAKILNNLDDNQLSEITGIDKLQLRSIQDGQVNPTKMELEIISKALKLPTNYFTK
soluble fraction (log2): 0.154

HMVSDTGAIEAIVAQVLADNPKLVEGYLATPEDKRGKAIGPFIGLTRKAAAGVNPQVVMDVLKKKLSEL
soluble fraction (log2): -0.733

HMIISMKKGATPQEISHVRKLIEELGYKVHESQGSERMVFGAIGDERSKHRLTSLEAQPGVEKVIPILA
soluble fraction (log2): 0.168

HMEKAISSLTLEEAKKRLEMVRSEKDASLQIYKETGSETARVTAENYGKEENSLLLHISEMSNIV
soluble fraction (log2): -0.209

HMIEEIPYSQFMSMLEEGKIDKAEIYQDSIIFSTKPDEQGKAGYYSIAYMKDNVLADRLYDAGVEFTPII
soluble fraction (log2): -1.4

HMKVYIKDISDLSDKLKSLLIENDIDDSNKLFEVEDQVLLEIKGLGSKTIDKIKDIVTEYLKKNN
soluble fraction (log2): -0.38

HMVIVGGDVIVHYVDTEGKKISDDVVKSGNVGEDYSTDQKTILGYRFKEVQGNTSGKFTDKTQVVTYIYT
soluble fraction (log2): 0.179

HMEQPLSLKLANNAFSRFWGNANPAEKDTQPNNSDIAKWVIEQSGGKITQTMADKIAQIIRPEWAA
soluble fraction (log2): 0.25

HMRHYVLKENNGVIAIYKVNQENEAVFKENTQIQVQYLPEVDLINLKKGIYAIGEEKLNSILEDF
soluble fraction (log2): -0.892

HMTNNDIIRRVRYLFNFSDKQVIELFKLANETVSIEHVSGWLKKEEDPTLIEISDRDLAVFLNGLII
soluble fraction (log2): -1.65

HMASAAHYEGVKTEGESDNDVITRVLTATGVTAEKDDIFVVKSLIADGKYSYTAYVYDGSVWAAMD
soluble fraction (log2): -0.541

HMTRYQHLAMLLEKRIAQGLYRNGERLPSVRSLSAEHGVSISTVQQAYYLLEQKQLIIPQSRSGYYVAPH
soluble fraction (log2): -0.378

HMRLSVRQRMSDVLGALKTQAFVEFTQLFRPQEGRMGVTVTFSAILELLREGLIEIVQSEPFAPIHVRAGA
soluble fraction (log2): 0.22

HMNEKTGTLTVYSSPGWAKVYIDGEYKGITPVMANLTYGDHYVKLTLDGYDSIGNHIDVNSPDQSYTGKF
soluble fraction (log2): 0.0783

HMKTPRKVFTVLIRNTEYDVYDIDGKEHQGYNDTPKTWWLYHSERLPEGMIPPIDSDSWKPYSVGT
soluble fraction (log2): -2.19

HMGEPLSPDARALTNVLRHYRGWAEPGELARKSGLGSRERVLTAAQSLVNAGLADIERGMVRPTAALMEVQ
soluble fraction (log2): -0.0354

HMDYGSISFINWSIEVLSVIKTRLDRGDKIIDEVSGEKYTASSFEKFVRKNFSSYIFSQVYAEDHKK
soluble fraction (log2): -0.016

HMDMAYEVVKAFHDLQDYKDVKGGKVYHHYDVGDTYPRQGLDPAPDETRIEELLSSGNAQGVPLIAEV
soluble fraction (log2): -0.219

HMKGQLVVFPNPASSNDMVRFNKNISFSIFDITGHLVDTKRNVNELSVGNLEAGTYILRTEQGDVLRMVI
soluble fraction (log2): -0.904

HMEPLIRTLEEQIAEKIKNYRKGTRVYDAEHVDRWISQLPEEERMVVLTETNRLLEQNYVDQAKLME
soluble fraction (log2): -0.803

HMEAIYKKNKNLIHTVIRDNFPFLIDTADYEDAFQEGSIGLIRAIDRFDDGLEYKFSSYAYTAIRNQIA
soluble fraction (log2): -0.165

HMDYIITHYPDNKRFETQVDGVVAFVQYRLSGDKLDIIHTIVPPAIGGRGIAAALVKYAYDYAIENGMK
soluble fraction (log2): -0.666

HMNRTKYYDFEGHPAKVVRLTLPVYLNKIGDEVVVYDSQKFAREASPISESQYNRMVAEIFQP
soluble fraction (log2): -0.0162

HMDRESFIKLGRELARSAFAHVGQKSTEKALETAADVLRLKDPNEVLARLGSAELTGRQVVQAIYPELI
soluble fraction (log2): 0.0233

HMENMSFGTKLYTWLYGKLVGSDEIGNKYYTNINDPSDLNAKRWVIFNGEIEASKIPPHWHAWLHKSIDK
soluble fraction (log2): -0.265

HMSEKELTDLIERIKERRLKLEMSYQDLSDATGISKSTLQRYETGYIKKVPINQIEILAKALHTTPSYLMG
soluble fraction (log2): 0.0791

HMDSNFNYELVGFRLDDMGLNSSVIVKRNNQEFVIQKGDLLENKYLLNSVTKKNINFSYLGKNYQI
soluble fraction (log2): -0.731

HMRSLATFEEEKIALRFWNYLQSEGIKSTLEEEGPRDWVIWVIDEEKIPSATQSLEKFNLNPDDPAFSN
soluble fraction (log2): -0.137

HMSVFTPLTRSELETFLAPYELGRLLDFQGIAAGSENTNYFISLEKGEYVLTLVERGPVAEMPFFIELLD
soluble fraction (log2): -1.49

HMGNKKLVLKLSKKLIKIPSFLNIYSVKLTKNGRELEINLDKSQNEAIDIINLIKKNNISFLEFDIKKR
soluble fraction (log2): 0.015

HMEPTLVVARDKDAKSPLVAKLMKELGVDAAPRVIVDDSVIGGAKLSHNHTEIDATYKTALINLYQAIT
soluble fraction (log2): -0.0179

HMLKAKKIPVSDLEKFKGIVAEDVVSKAKALILPRGSNLSWLSNVAKKNLIAKLKAEGIEYISVYSS
soluble fraction (log2): 0.0669

HMKEEVSVPDIKGMTYEEAEAKLAKYDLEIEKGETVKASEQYEEGQISSQEPEAGSKVKEGSTIVVDVVE
soluble fraction (log2): -0.174

HMFGELTPDTAKRFLLTAREQEMASLIAQGLTNKEIAFRLGISEATVRTHIYNLFQKVGVQSRIELLNVLH
soluble fraction (log2): -0.162

HMWSAREQVVNSLREAILTSELKAGERLVLSDLSARLGVSVTPIREALQSLEREGLVQLMPHQEAVVV
soluble fraction (log2): -0.409

HMTKEEFLDEIKKELGFMPYEEVIKAEKYFESYFNGSEADEKVIERFGSPKYAAQNYYRTHVAN
soluble fraction (log2): 0.0371

HMALHDTLSYEEYLDLGLNGKADSAEKRELVAHALHLGRPNAKTLYKRLNMLQLNRKDVAALLEQ
soluble fraction (log2): 0.299

HMVKEVKVPDVEGLTTEEAIKELKKYGLAYTTKSEENTDIEEGKVIRTEPKKGSTKVKGSTVTIIESSG
soluble fraction (log2): 0.253

HMGNIKVPSVMGMTLEGAEKVAKDNGAVIEVLEYKESTEEDGTIIEQSPKADMTVATLEKISVVISGK
soluble fraction (log2): 0.0995

HMKVNQFEVEGNQRYSTEEIAKASGVSKGDNLFLVNKTETARKLLDELAYVRSVNIKRKLPDTLVITVAE
soluble fraction (log2): 0.331

HMRYQIAEARKLRDITQAELAEKMGTTQQTIQRYETNQVNIRMDKMIEMSEILNVSLAYLLGMSSSPEL
soluble fraction (log2): 0.122

HMNLGETIYNLRKEKKLSQGDLAEQLSVSRQSVSKWENNSAVPDLDKLVKLSTIFGVSLDELVKG
soluble fraction (log2): 0.409

HMRLPNHYGSVVKLSGKRRRPFMVRGGVYGYDDRGYPQYVIVGYTETREQGLTMLAEYNRNP
soluble fraction (log2): -0.319

HMGGGRELGLDPETGKKISVRLGKFGPFVQLGESGEEDKPVFANLGKNQSIATLSLEEAIALLARPK
soluble fraction (log2): 0.189

HMIPNPMTDRELEVLGLLASGKTYKQVARALDLSQSTVRNHLHNVYHKLNVVDRAQAVIVSRENGW
soluble fraction (log2): -0.29

HMENLRLSELTVERGHRLAGRTLADIASAPNSPKYLIVLIQRGQETVIPTGSTVILPGDVLILAQS
soluble fraction (log2): -0.749

HMRVDDITDTILNVLKEQGGFISVTDKSSPETINKLFGVSKKTYKKAIGAIYRKKLIIIEDDGIRLNS
soluble fraction (log2): -0.219

HMYFGNSLFQARKRSGLSQEGVAEKLGVSRQTVSKWETGETVPDIYQSKKMARLYGVSLDEL
soluble fraction (log2): 0.217

HMTFGENLIRLRRQQGLSQEQLGMRIGVSRQTVSKWELNDTTPEMEKLIALADLFGLSLDELTGRV
soluble fraction (log2): -0.392

HMLTKGDRQSIRDSIIYMVGNAPRTLDYIVAESRYSEEDVIEAVRSLLSSHILSIDDSDMISLTRK
soluble fraction (log2): -0.362

HMDDVYMVPVKDIAINDLKQEFEKLGIPNIQNTIPDKDLNFFIVRKDDLALVNYAIEKTMER
soluble fraction (log2): -0.523

HMIGEKLKEIREKTGMNKKEFAQYLGLKYTTYNNYETEAREPASDFLILISTKFDVSIDYLLGLQ
soluble fraction (log2): -0.389

HMTGESVPAPLSGTIFKILVAPGEQVEEGQTVIILEAMKMETEISAPRSGVVGAINIKEGDSVQVGQSLFT
soluble fraction (log2): 0.104

HMLALVREQIERNVSNPTDEDIRKIRHDVMEVITRAGADAATVDIAIEIDSQKNILRAIATGATEL
soluble fraction (log2): -1

HMAVLFFVKRGERILGPTRLADLFQHAASGRLRANDLVGESPKGPWLPARQLDELEDAWASSRDATEAAAA
soluble fraction (log2): -0.0753

HMDSDIGQQLKILLTVGTFMPSTELKAIAQQFGMKKPTDLKEWVELESDTQRIKGNPTKGYWINEINDL
soluble fraction (log2): -0.262

HMLDKKKHLEQGRKIIEDQLAKYKIQPSFDTLKKLSAYYGLNNKEQLYAQVGMGFLELENLDEILQ
soluble fraction (log2): -0.347

HMHNSPSPVATTILRFLQPVRAFVGDTEDMRTFGPFLREDVAMVPASQAKNLIRSGHAVEINP
soluble fraction (log2): -0.173

HMSSWMTKDGKIKPISKWAGVPMTSQQQADYAAGKVVELTNIPDKQGQLNTVYLKFNPEKQRPTTSLNDPR
soluble fraction (log2): 0.22

HMEPESTMIEISETLTNERLDRYLATKLPNVSRGGIQRLLREGNILVNGKKAKPTQHPVAGQKIEITWPNP
soluble fraction (log2): -0.11

HMQDLEIKINLGMTYYEVREAIGSPDIIDKINQYGRDFQMWTYYIDDKTKRYYFEDHLLTKI
soluble fraction (log2): -1.65

HMPPELSDEVMEEAMSYLKNQYLNHGVKLEDYPALNKLFVDEAFRSEVIRKTQSNYKISYQSAMASLD
soluble fraction (log2): -0.928

HMPGPAEMPGWITARAKKLGGQITPEAARALAAEMGSDTEQASREIEKLLTYVDYRRPVEEEDVALLTA
soluble fraction (log2): 0.00808

HMLDYQLQVFKDTLEANRKHRGQKIVFIHGKGEGVLRRALIHALNYQYKKFTYQDASFREYGYGATQVTI
soluble fraction (log2): -0.0148

HMGKLYRDRYAPLEPDGARAGDRVFIISLEKEGTLERIDLPRKTATVLLGSSIRSTFPLDDLYQPRG
soluble fraction (log2): -0.163

HMGFEALRSRHRITAREMEVLQHMLAGRSNAEIGHTLGLSERTVKTHITSIFNKLGVDSRAQLGYMLK
soluble fraction (log2): 0.366

HMKSVTVIFKESGNVVSSKKLSVVATAQYVDKSRITAPAGYRIATTDSKLKISENNTVTVEVK
soluble fraction (log2): -0.1

Source: the domain aggregation screens of Martell et al. (2025)
